The values that follow come from PMC3340179.

This series has as its target STAT3-GFP (STAT3-EGFP fusion, unphosphorylated) (UniProt P40763). Nature of the series: MST.

Chain of STAT3-GFP (STAT3-EGFP fusion, unphosphorylated) (P40763 whole entry, the tested form may be a part): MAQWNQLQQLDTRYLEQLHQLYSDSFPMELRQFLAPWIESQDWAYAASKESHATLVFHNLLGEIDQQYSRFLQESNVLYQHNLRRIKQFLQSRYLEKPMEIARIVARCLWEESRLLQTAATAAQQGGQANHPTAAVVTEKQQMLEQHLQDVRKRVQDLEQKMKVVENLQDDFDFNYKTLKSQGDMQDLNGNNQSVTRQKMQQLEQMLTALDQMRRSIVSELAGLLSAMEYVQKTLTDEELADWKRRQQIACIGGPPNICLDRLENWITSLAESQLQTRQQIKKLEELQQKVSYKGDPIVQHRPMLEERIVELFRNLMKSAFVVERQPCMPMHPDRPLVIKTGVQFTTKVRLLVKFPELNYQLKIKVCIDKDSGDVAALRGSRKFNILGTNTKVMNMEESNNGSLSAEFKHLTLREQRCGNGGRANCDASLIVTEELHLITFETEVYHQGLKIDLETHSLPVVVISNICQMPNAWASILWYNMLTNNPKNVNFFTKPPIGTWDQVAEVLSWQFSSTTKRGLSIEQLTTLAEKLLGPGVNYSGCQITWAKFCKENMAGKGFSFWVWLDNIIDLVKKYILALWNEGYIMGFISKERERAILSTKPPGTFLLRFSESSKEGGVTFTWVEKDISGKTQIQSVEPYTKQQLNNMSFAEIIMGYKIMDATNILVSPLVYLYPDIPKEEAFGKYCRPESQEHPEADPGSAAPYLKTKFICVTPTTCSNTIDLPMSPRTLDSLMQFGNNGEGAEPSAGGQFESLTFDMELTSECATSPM

In the case of “AAAACAAAACGAAACAAACAAACTA (double strand) [S+100]”, the Kd (usually the concentration at which binding is half-saturated) was found to be 23.3 µM. This counts as double-digit micromolar.
In the case of “GTTTCCGGGAAAGCAGTAGGTTTCCGGGAAAG (double strand) [GAS]”, the Kd came to 37.9 µM.
